We go through five molecules from patent publication US20110300138A1 (published 2011).

For assay [1], the target named is TSH receptor (TSHR), full length human, coated on tubes (human) (UniProt P16473). In words: binding of 125I-TSH to TSHR coated tubes, in HBD serum pool, no competitor.
Assay [2] has as its target TSH receptor (full length human TSHR) coated on tubes (human) (UniProt P16473). In words: 125I-TSH binding to TSHR coated tubes, in assay buffer, no inhibitor.
Assay [3] deals with TSH receptor (TSHR), full length human, coated on tubes (human) (UniProt P16473). Put plainly: binding of 125I-TSH to TSHR coated tubes, in assay buffer, no competitor.
For assay [4] the target is unchanged. The description is as above. This is another data set of the same source.
Assay [5] addresses TSH receptor (full length human TSHR) coated on tubes (human) (UniProt P16473). In words: 125I-TSH binding to TSHR coated tubes, in HBD serum pool, no inhibitor.
Assay [6] deals with TSHR coated tubes (full length TSHR) (human) (UniProt P16473). Put plainly: 125I-TSH binding to TSHR coated tubes in assay buffer only (no competitor).
For assay [7], the target named is TSHR260-AP (fusion protein consisting of a fragment of human TSHR, amino acids 22-260, with alkaline phosphatase) (human). In words: bridging ELISA: full length TSHR on wells, TSHR260-AP in liquid phase; IgG 0.005 µg/mL in HBD serum. On the technique in general: ELISA stands for enzyme-linked immunosorbent assay.
For assay [8] the target is unchanged. Put plainly: bridging ELISA: full length TSHR on wells, TSHR260-AP in liquid phase; IgG 0.1 µg/mL in HBD serum.
For assay [9] the target is unchanged. In words: bridging ELISA: full length TSHR on wells, TSHR260-AP in liquid phase; IgG 0.5 µg/mL in HBD serum.
Assay [10] shares this target. In words: bridging ELISA: full length TSHR on wells, TSHR260-AP in liquid phase; IgG 0.05 µg/mL in HBD serum.
Assay [11] has the same target. In words: bridging ELISA: full length TSHR on wells, TSHR260-AP in liquid phase; IgG 0.1 µg/mL in HBD serum. The source holds these as a separate data set.
Assay [12] has the same target. In words: bridging ELISA: full length TSHR on wells, TSHR260-AP in liquid phase; IgG 10 µg/mL in HBD serum.
Assay [13] has the same target. In words: bridging ELISA: full length TSHR on wells, TSHR260-AP in liquid phase; IgG 0.01 µg/mL in HBD serum.
The target is the same in assay [14]. Put plainly: bridging ELISA: full length TSHR on wells, TSHR260-AP in liquid phase; IgG 10 µg/mL in HBD serum. This is another data set of the same source.
The target is the same in assay [15]. Put plainly: bridging ELISA: full length TSHR on wells, TSHR260-AP in liquid phase; IgG 1 µg/mL in HBD serum.
For assay [16] the target is unchanged. Put plainly: bridging ELISA: full length TSHR on wells, TSHR260-AP in liquid phase; IgG 0.05 µg/mL in HBD serum. The source holds these as a separate data set.
Assay [17] shares this target. Put plainly: bridging ELISA: full length TSHR on wells, TSHR260-AP in liquid phase; IgG 0.5 µg/mL in HBD serum. The source holds these as a separate data set.
Assay [18] shares this target. In words: bridging ELISA: full length TSHR on wells, TSHR260-AP in liquid phase; IgG 0.01 µg/mL in HBD serum. This is another data set of the same source.
For assay [19] the target is unchanged. In words: bridging ELISA: full length TSHR on wells, TSHR260-AP in liquid phase; IgG 1 µg/mL in HBD serum. The source holds these as a separate data set.
The target is the same in assay [20]. Put plainly: bridging ELISA: full length TSHR on wells, TSHR260-AP in liquid phase; IgG 0.005 µg/mL in HBD serum. This is another data set of the same source.
In assay [21] the target is human TSH receptor (full length), coated on tubes (human) (UniProt P16473). In words: inhibition of 125I-K1-70 Fab (competitor) binding to TSHR coated tubes; 0.003 µg/mL in HBD serum pool.
For assay [22], the target named is TSHR260-alkaline phosphatase (TSHR260-AP) (human) (UniProt P05187). In words: TSHR260-AP bridge ELISA, full length TSHR on wells; 0.005 µg/mL, diluted in HBD.
Assay [23] concerns the target TSH receptor (TSHR), full length human, coated on tubes (human) (UniProt P16473). Put plainly: inhibition of 125I-TSH binding to TSHR coated tubes; 0.001 µg/mL, diluted in HBD serum pool.
The target in assay [24] is TSHR260-alkaline phosphatase (TSHR260-AP) (human) (UniProt P05187). Put plainly: TSHR260-AP bridge ELISA, full length TSHR on wells; 10 µg/mL, diluted in HBD.
Assay [25] addresses TSH receptor (TSHR), full length human, coated on tubes (human) (UniProt P16473). In words: inhibition of 125I-TSH binding to TSHR coated tubes; 0.003 µg/mL, diluted in HBD serum pool.
For assay [26], the target named is TSH receptor (TSHR) coated on tubes (human) (UniProt P16473). In words: inhibition of 125I-K1-70 IgG binding to TSHR coated tubes; sample 0.01 µg/mL in HBD serum pool.
In assay [27] the target is human thyroid stimulating hormone receptor (TSHR), full length (human) (UniProt P16473). Put plainly: 125I-K1-18 Fab competition, TSHR coated tubes; 0.001 µg/mL in assay buffer.
Assay [28] has as its target human TSH receptor (full length), coated on tubes (human) (UniProt P16473). In words: inhibition of 125I-K1-70 Fab (competitor) binding to TSHR coated tubes; 0.03 µg/mL in HBD serum pool.
Assay [29] concerns the target TSHR260-alkaline phosphatase (TSHR260-AP) (human) (UniProt P05187). Put plainly: TSHR260-AP bridge ELISA, full length TSHR on wells; 0.1 µg/mL, diluted in HBD.
Assay [30] deals with human thyroid stimulating hormone receptor (TSHR), full length (human) (UniProt P16473). Put plainly: 125I-K1-18 Fab competition, TSHR coated tubes; 0.01 µg/mL in HBD.
The target of assay [31] is TSHR260-alkaline phosphatase (TSHR260-AP) (human) (UniProt P05187). Put plainly: TSHR260-AP bridge ELISA, full length TSHR on wells; 0.1 µg/mL, diluted in assay buffer.
The target is the same in assay [32]. In words: TSHR260-AP bridge ELISA, full length TSHR on wells; 0.005 µg/mL, diluted in assay buffer.
Assay [33] shares this target. Put plainly: TSHR260-AP bridge ELISA, full length TSHR on wells; 250 µg/mL, diluted in HBD.
The target is the same in assay [34]. In words: TSHR260-AP bridge ELISA, full length TSHR on wells; 10 µg/mL, diluted in assay buffer.
Assay [35] deals with TSH receptor (full length human TSHR) coated on tubes (human) (UniProt P16473). In words: 125I-TSH bound to TSHR coated tubes, in assay buffer.
The target is the same in assay [36]. In words: 125I-TSH bound to TSHR coated tubes, in HBD pool serum.
Assay [37] concerns the target T1, human TSH receptor, full length, detergent-solubilised, coated on tubes or ELISA plate wells (human, UniProt P16473 22-764).
T1 construct: Full length recombinant receptor expressed in CHO cells, solubilised and coated via a C-terminal antibody; also called wild type TSHR; full length TSHR
In words: TSHR binding affinity (summary table; Scatchard analysis, TSHR coated tubes).

As for ^125I-TSH (ligand), the ^125I-TSH binding (%) in assay [1] stood at 11.5%; in assay [3], 13.4%; in [4], 11%. For the same molecule, the % binding stood at 10.8% in assay [2] and 12.4% in [5]. In assay [6], this molecule had a % of ^125I-TSH binding of 12.4%.
Regarding “M22 IgG (human monoclonal thyroid stimulating autoantibody, hMAb TSHR1)”, the Mean absorbance at 405 nm (absorbance at 405 nm) in [7] is 0.011; in assay [8] it was 0.599; in assay [9] it was 1.09; in assay [10], 0.292; in assay [11], 0.548; in assay [12], 1.36. Moreover, the Mean absorbance at 405 nm (absorbance at 405 nm) in assay [13] was found to be 0.064; in [14], 1.27; in [15] it was 1.09; in assay [16], 0.332; in assay [17], 1.02; in assay [18], 0.043. The Mean absorbance at 405 nm (absorbance at 405 nm) in assay [19] came out at 1.17; in assay [20], 0.032.
In the case of M22 Fab, the Inhibition of binding (%) in assay [21] was 11.5%; in [23] it was -11.2%; in assay [25], -7.9%; in [26], 34%; in assay [27] it was -0.7%; in [28] it was 66.8%. Moreover, the Inhibition of binding (%) in assay [30] was 20.4%. Further, the Mean absorbance at 405 nm (absorbance at 405 nm) in assay [22] was -0.013; in assay [24], 0.01; in assay [29], -0.007; in assay [31], 0.015; in [32], -0.004; in assay [33], 0.031. The Mean absorbance at 405 nm (absorbance at 405 nm) in [34] amounted to 0.034.
For 125I-TSH (ligand), the 125I-TSH binding (%) is 17.7% in [35] and 16% in assay [36].

B1: K1-18 Fab (Fab, V domains shown)
VH: EVQLVQSGAEVKKPGESLKISCKGSGYSFTNYWIGWVRQMPGKGLEWMGIIYPYDSDTRYSPSFEGQVTISADKSIRTAYLHWSSLKASDTAMYYCVRPRDGSYPYDAFDIWGQGTMVTVSS
VL: EIVLTQSPGTLSLSPGERATLSCRASQSVSNNYLAWYQQKPGQAPRLLIYGASSRATGIPDRFSGSGSGTDFTLTISRLEPEDFAVYYCQHCGSSLRAFGQGTKVEIKR
notes: also called Fab of K1-18
B1 showed a Ka in assay [37] of 1.3e+09 M⁻¹.
